Test results reported in patent US20070148185A1.

What was measured:
[1] = target: heparan sulfate proteoglycans (HSPG) expressed on the surface of HepG2 human liver cells (human); assay: 100 nM protein on HepG2 cells pretreated with Heparinase I 1.25 U/ml, against non-treated cells
[2] = target: heparan sulfate proteoglycans (HSPG) expressed on the surface of HepG2 human liver cells (human); assay: 100 nM protein on HepG2 cells pretreated with Heparinase I 2.50 U/ml, against non-treated cells
[3] = target: heparan sulfate proteoglycans (HSPG) expressed on the surface of HepG2 human liver cells (human); assay: 100 nM protein on HepG2 cells pretreated with Heparinase I 5.00 U/ml, against non-treated cells
[4] = target: heparan sulfate proteoglycans (HSPG) expressed on the surface of HepG2 human liver cells (human); assay: cell-based or functional assay
[5] = target: heparan sulfate proteoglycans (HSPG) expressed on the surface of HepG2 human liver cells (human); assay: HepG2 cell binding assay with soluble heparin as competitive inhibitor
[6] = target: heparan sulfate proteoglycans (HSPG) expressed on the surface of HepG2 human liver cells (human); assay: binding of His-tagged protein to fixed HepG2 cells, anti-polyhistidine detection

Row | Molecule | Inhibition of Binding (%) [1] | Inhibition of Binding (%) [2] | Inhibition of Binding (%) [3] | % Inhibition of invasion of HepG2 cells by P. falciparum sporozoites, FRAP2 at 10 µg/ml [4] | % Inhibition of invasion of HepG2 cells by P. falciparum sporozoites, FRAP2 at 20 µg/ml [4] | reduction of binding activity in the presence of free heparin [5] | loss of binding activity in comparison to the full length protein [6] | % Inhibition of invasion of HepG2 cells by P. falciparum sporozoites, FRAP at 10 µg/ml [4] | % Inhibition of invasion of HepG2 cells by P. falciparum sporozoites, FRAP at 20 µg/ml [4]
1 | recombinant Circumsporozoite (CS) protein with a polyhistidine tag at the carboxyl terminus | 48.1% | 57.7% | 59.1% |  |  |  |  |  | 
2 | FRAP2, truncated P. falciparum FRAP containing amino acids 1-87, with C-terminal polyhistidine tag (protein) MKNRFYYNLIIKRLYTRSGGLRKPQKVTNDPESINRKVYWCFEHKPVKRTIINLIYSHNELKIFSNLLNHPTVGSSLIHELSLDGPY | 42.3% | 41.4% | 49.4% | 88.1% | 92.4% | 60% | 50% |  | 
3 | Plasmodium falciparum Fasciclin Related Adhesive Protein (FRAP), recombinant full length protein (amino acids 1-205) with C-terminal polyhistidine tag (protein) MKNRFYYNLIIKRLYTRSGGLRKPQKVTNDPESINRKVYWCFEHKPVKRTIINLIYSHNELKIFSNLLNHPTVGSSLIHELSLDGPYTAFFPSNEAMQLINIESFNKLYNDENKLSEFVLNHVTKEYWLYRDLYGSSYQPWLMYNEKREAPEKLRNLLNNDLIVKIEGEFKHCNHSIYLNGSKIIRPNMKCHNGVVHIVDKPIIF | 39.4% | 42.1% | 47.8% |  |  | 55% |  | 80.9% | 89.5%
